In publication PMC8178248:
“And” between values parts separate entries of the source, which are not always exact repeats. Equal values may be shown once.

Assays:
[1] = target: DrdV restriction-modification enzyme (Deinococcus wulumuqiensis 479); test: negative stain EM
[2] = target: DrdV restriction-modification enzyme (Deinococcus wulumuqiensis 479); test: cryo-EM structure
[3] = target: DrdV restriction-modification enzyme (Deinococcus wulumuqiensis 479); test: SEC
[4] = target: DrdV restriction-modification enzyme (Deinococcus wulumuqiensis 479); test: cryo-EM structure; remark: listed apart in the source

stoichiometry N [1]: 4
stoichiometry N [2]: 3 and 4
stoichiometry N [3]: 4
stoichiometry N [4]: 2
Substance: DrdV restriction-modification enzyme
